Experimental data published in paper PMC9321335, “Palmitic Acid-Conjugated Radiopharmaceutical for Integrin αvβ3-Targeted Radionuclide Therapy” (Pharmaceutics, 2022).

Assays:
MC38 tumor-bearing mice = assay: in vivo; settings: mouse
Experimental: (§1) Mice bearing MC38 xenografts were randomly divided into 10 groups (n = 4). The mice in five groups were administered 0.74 MBq/20 µCi of ^177Lu-Palm-3PRGD2 and sacrificed at 1, 4, 12, 24, and 72 h p.i. The mice on one group was injected with 0.74 MBq/20 µCi of ^177Lu-Palm-3PRGD2 and 500 μg (242 nmol) 3PRGD2 as a blocking agent and sacrificed at 1 h p.i. […] Tumors and major organs were harvested, weighed and measured for radioactivity using a γ-counter. The organ uptake was calculated as the percentage injected activity per gram (%IA/g). The effective absorbed dose in humans estimated from mouse biodistribution data by using a dedicated software (OLINDA 1.0).

in vivo = settings: C57BL/6, mouse, total radioactivity; for tissue to tissue ratio at 1 h / tissue to tissue ratio at 4 h / tissue to tissue ratio at 12 h / tissue to tissue ratio at 24 h / tissue to tissue ratio at 72 h: Tumor-to-tissue ratio
Experimental: as §1

What does the source list for `CCCCCCCCCCCCCCCC(=O)N[C@@H](CCC(=O)NCCCC[C@H](NC(=O)CN1CCN(CC(=O)O)CCN(CC(=O)O)CCN(CC(=O)O)CC1)C(=O)NCCOCCOCCOCCOCCC(=O)N[C@@H](CCC(=O)NCCOCCOCCOCCOCCC(=O)NCCCC[C@@H]1NC(=O)[C@@H](Cc2ccccc2)NC(=O)[C@H](CC(=O)O)NC(=O)CNC(=O)[C@H](CCCNC(=N)N)NC1=O)C(=O)NCCOCCOCCOCCOCCC(=O)NCCCC[C@@H]1NC(=O)[C@@H](Cc2ccccc2)NC(=O)[C@H](CC(=O)O)NC(=O)CNC(=O)[C@H](CCCNC(=N)N)NC1=O)C(=O)O` [^177Lu-Palm-3PRGD2, [^177Lu]Lu-DOTA-Palm-3PRGD2, metal not drawn]?
AUC0h→72h in MC38 tumor (MC38 tumor-bearing mice): 1031.0 ± 97.25 % IA/g·h; AUC0h→72h in blood (MC38 tumor-bearing mice): 104.5 ± 7.98 % IA/g·h; AUC0h→72h in kidney (MC38 tumor-bearing mice): 1087.0 ± 62.73 % IA/g·h; AUC0h→72h in liver (MC38 tumor-bearing mice): 915.6 ± 74.74 % IA/g·h; tissue uptake at 1 h (in vivo; 0.74 MBq, Blood uptake): 9.73 %ID/g; tissue uptake at 4 h (in vivo; 0.74 MBq, Blood uptake): 4.11 %ID/g; tissue uptake at 12 h (in vivo; 0.74 MBq, Blood uptake): 0.58 %ID/g; tissue uptake at 24 h (in vivo; 0.74 MBq, Blood uptake): 0.24 %ID/g; tissue uptake at 72 h (in vivo; 0.74 MBq, Blood uptake): 0.21 %ID/g; tissue uptake at 1 h (in vivo; 0.74 MBq, Bone uptake): 3.39 %ID/g; tissue uptake at 4 h (in vivo; 0.74 MBq, Bone uptake): 4.55 %ID/g; tissue uptake at 12 h (in vivo; 0.74 MBq, Bone uptake): 3.05 %ID/g; tissue uptake at 24 h (in vivo; 0.74 MBq, Bone uptake): 3.13 %ID/g; tissue uptake at 72 h (in vivo; 0.74 MBq, Bone uptake): 1.97 %ID/g; tissue uptake at 1 h (in vivo; 0.74 MBq, Brain uptake): 0.52 %ID/g; tissue uptake at 4 h (in vivo; 0.74 MBq, Brain uptake): 0.55 %ID/g; tissue uptake at 12 h (in vivo; 0.74 MBq, Brain uptake): 0.43 %ID/g; tissue uptake at 24 h (in vivo; 0.74 MBq, Brain uptake): 0.4 %ID/g; tissue uptake at 72 h (in vivo; 0.74 MBq, Brain uptake): 0.29 %ID/g; tissue uptake at 1 h (in vivo; 0.74 MBq, Heart uptake): 5.59 %ID/g; tissue uptake at 4 h (in vivo; 0.74 MBq, Heart uptake): 4.93 %ID/g; tissue uptake at 12 h (in vivo; 0.74 MBq, Heart uptake): 3.2 %ID/g; tissue uptake at 24 h (in vivo; 0.74 MBq, Heart uptake): 2.7 %ID/g; tissue uptake at 72 h (in vivo; 0.74 MBq, Heart uptake): 1.53 %ID/g; tissue uptake at 1 h (in vivo; 0.74 MBq, Intestinal uptake): 20.6 ± 1.97 %ID/g; tissue uptake at 72 h (in vivo; 0.74 MBq, Intestinal uptake): 12.8 ± 1.06 %ID/g; tissue uptake at 4 h (in vivo; 0.74 MBq, Intestine uptake): 17.6 %ID/g; tissue uptake at 12 h (in vivo; 0.74 MBq, Intestine uptake): 21.1 %ID/g; tissue uptake at 24 h (in vivo; 0.74 MBq, Intestine uptake): 17.4 %ID/g; tissue uptake at 1 h (in vivo; 0.74 MBq, Kidney uptake): 17.6 %ID/g; tissue uptake at 4 h (in vivo; 0.74 MBq, Kidney uptake): 20.1 ± 0.6 %ID/g; tissue uptake at 12 h (in vivo; 0.74 MBq, Kidney uptake): 19.3 %ID/g; tissue uptake at 24 h (in vivo; 0.74 MBq, Kidney uptake): 17 %ID/g; tissue uptake at 72 h (in vivo; 0.74 MBq, Kidney uptake): 10.6 ± 1.11 %ID/g; tissue uptake at 1 h (in vivo; 0.74 MBq, Liver uptake): 13.7 %ID/g; tissue uptake at 4 h (in vivo; 0.74 MBq, Liver uptake): 22.4 ± 2.55 %ID/g; tissue uptake at 12 h (in vivo; 0.74 MBq, Liver uptake): 22.1 %ID/g; tissue uptake at 24 h (in vivo; 0.74 MBq, Liver uptake): 13.7 %ID/g; tissue uptake at 72 h (in vivo; 0.74 MBq, Liver uptake): 6.73 ± 1.18 %ID/g; tissue uptake at 1 h (in vivo; 0.74 MBq, Lung uptake): 7.79 %ID/g; tissue uptake at 4 h (in vivo; 0.74 MBq, Lung uptake): 7.85 %ID/g; tissue uptake at 12 h (in vivo; 0.74 MBq, Lung uptake): 5.2 %ID/g; tissue uptake at 24 h (in vivo; 0.74 MBq, Lung uptake): 3.53 %ID/g; tissue uptake at 72 h (in vivo; 0.74 MBq, Lung uptake): 1.55 %ID/g; tissue uptake at 1 h (in vivo; 0.74 MBq, Muscle uptake): 1.96 %ID/g; tissue uptake at 4 h (in vivo; 0.74 MBq, Muscle uptake): 1.7 %ID/g; tissue uptake at 12 h (in vivo; 0.74 MBq, Muscle uptake): 1.24 %ID/g; tissue uptake at 24 h (in vivo; 0.74 MBq, Muscle uptake): 0.96 %ID/g; tissue uptake at 72 h (in vivo; 0.74 MBq, Muscle uptake): 0.7 %ID/g; tissue uptake at 1 h (in vivo; 0.74 MBq, Spleen uptake): 7.35 %ID/g; tissue uptake at 4 h (in vivo; 0.74 MBq, Spleen uptake): 12.4 %ID/g; tissue uptake at 12 h (in vivo; 0.74 MBq, Spleen uptake): 18.4 %ID/g; tissue uptake at 24 h (in vivo; 0.74 MBq, Spleen uptake): 14.9 %ID/g; tissue uptake at 72 h (in vivo; 0.74 MBq, Spleen uptake): 8.38 %ID/g; tissue uptake at 1 h (in vivo; 0.74 MBq, Stomach uptake): 5.73 %ID/g; tissue uptake at 4 h (in vivo; 0.74 MBq, Stomach uptake): 7.22 %ID/g; tissue uptake at 12 h (in vivo; 0.74 MBq, Stomach uptake): 6.07 %ID/g; tissue uptake at 24 h (in vivo; 0.74 MBq, Stomach uptake): 3.7 %ID/g; tissue uptake at 72 h (in vivo; 0.74 MBq, Stomach uptake): 1.38 %ID/g; tissue uptake at 1 h (in vivo; 0.74 MBq, Tumor uptake): 14.4 ± 2.53 %ID/g; tissue uptake at 4 h (in vivo; 0.74 MBq, Tumor uptake): 26.3 ± 6.34 %ID/g; tissue uptake at 12 h (in vivo; 0.74 MBq, Tumor uptake): 22.9 ± 4.2 %ID/g; tissue uptake at 24 h (in vivo; 0.74 MBq, Tumor uptake): 17.2 ± 3.3 %ID/g; tissue uptake at 72 h (in vivo; 0.74 MBq, Tumor uptake): 5.83 ± 1.27 %ID/g; tissue to tissue ratio at 1 h (in vivo; 0.74 MBq, Blood): 1.47; tissue to tissue ratio at 4 h (in vivo; 0.74 MBq, Blood): 7.28; tissue to tissue ratio at 12 h (in vivo; 0.74 MBq, Blood): 44.9; tissue to tissue ratio at 24 h (in vivo; 0.74 MBq, Blood): 73.2; tissue to tissue ratio at 72 h (in vivo; 0.74 MBq, Blood): 28.2; tissue to tissue ratio at 1 h (in vivo; 0.74 MBq, Bone): 4.3; tissue to tissue ratio at 4 h (in vivo; 0.74 MBq, Bone): 6.66; tissue to tissue ratio at 12 h (in vivo; 0.74 MBq, Bone): 7.14; tissue to tissue ratio at 24 h (in vivo; 0.74 MBq, Bone): 5.61; tissue to tissue ratio at 72 h (in vivo; 0.74 MBq, Bone): 2.96; tissue to tissue ratio at 1 h (in vivo; 0.74 MBq, Brain): 27.9; tissue to tissue ratio at 4 h (in vivo; 0.74 MBq, Brain): 55.3; tissue to tissue ratio at 12 h (in vivo; 0.74 MBq, Brain): 52.5; tissue to tissue ratio at 24 h (in vivo; 0.74 MBq, Brain): 42.5; tissue to tissue ratio at 72 h (in vivo; 0.74 MBq, Brain): 19.9; tissue to tissue ratio at 1 h (in vivo; 0.74 MBq, Heart): 2.59; tissue to tissue ratio at 4 h (in vivo; 0.74 MBq, Heart): 6.12; tissue to tissue ratio at 12 h (in vivo; 0.74 MBq, Heart): 7.11; tissue to tissue ratio at 24 h (in vivo; 0.74 MBq, Heart): 6.41; tissue to tissue ratio at 72 h (in vivo; 0.74 MBq, Heart): 3.86; tissue to tissue ratio at 1 h (in vivo; 0.74 MBq, Intestine): 0.77; tissue to tissue ratio at 4 h (in vivo; 0.74 MBq, Intestine): 1.62; tissue to tissue ratio at 12 h (in vivo; 0.74 MBq, Intestine): 1.06; tissue to tissue ratio at 24 h (in vivo; 0.74 MBq, Intestine): 1; tissue to tissue ratio at 72 h (in vivo; 0.74 MBq, Intestine): 0.45; tissue to tissue ratio at 1 h (in vivo; 0.74 MBq, Kidney): 0.82; tissue to tissue ratio at 4 h (in vivo; 0.74 MBq, Kidney): 1.42; tissue to tissue ratio at 12 h (in vivo; 0.74 MBq, Kidney): 1.2; tissue to tissue ratio at 24 h (in vivo; 0.74 MBq, Kidney): 1.01; tissue to tissue ratio at 72 h (in vivo; 0.74 MBq, Kidney): 0.56; tissue to tissue ratio at 1 h (in vivo; 0.74 MBq, Liver): 1.06; tissue to tissue ratio at 4 h (in vivo; 0.74 MBq, Liver): 1.02; tissue to tissue ratio at 12 h (in vivo; 0.74 MBq, Liver): 1.05; tissue to tissue ratio at 24 h (in vivo; 0.74 MBq, Liver): 1.3; tissue to tissue ratio at 72 h (in vivo; 0.74 MBq, Liver): 0.89; tissue to tissue ratio at 1 h (in vivo; 0.74 MBq, Lung): 1.87; tissue to tissue ratio at 4 h (in vivo; 0.74 MBq, Lung): 3.98; tissue to tissue ratio at 12 h (in vivo; 0.74 MBq, Lung): 3.86; tissue to tissue ratio at 24 h (in vivo; 0.74 MBq, Lung): 4.89; tissue to tissue ratio at 72 h (in vivo; 0.74 MBq, Lung): 3.78; tissue to tissue ratio at 1 h (in vivo; 0.74 MBq, Muscle): 7.33; tissue to tissue ratio at 4 h (in vivo; 0.74 MBq, Muscle): 17.5; tissue to tissue ratio at 12 h (in vivo; 0.74 MBq, Muscle): 18; tissue to tissue ratio at 24 h (in vivo; 0.74 MBq, Muscle): 17.9; tissue to tissue ratio at 72 h (in vivo; 0.74 MBq, Muscle): 8.33; tissue to tissue ratio at 1 h (in vivo; 0.74 MBq, Spleen): 2.02; tissue to tissue ratio at 4 h (in vivo; 0.74 MBq, Spleen): 2.56; tissue to tissue ratio at 12 h (in vivo; 0.74 MBq, Spleen): 1.4; tissue to tissue ratio at 24 h (in vivo; 0.74 MBq, Spleen): 1.35; tissue to tissue ratio at 72 h (in vivo; 0.74 MBq, Spleen): 0.7; tissue to tissue ratio at 1 h (in vivo; 0.74 MBq, Stomach): 2.57; tissue to tissue ratio at 4 h (in vivo; 0.74 MBq, Stomach): 4.06; tissue to tissue ratio at 12 h (in vivo; 0.74 MBq, Stomach): 3.84; tissue to tissue ratio at 24 h (in vivo; 0.74 MBq, Stomach): 4.74; tissue to tissue ratio at 72 h (in vivo; 0.74 MBq, Stomach): 4.25; tissue to tissue ratio at 1 h (in vivo; Blood): 0.25; tissue to tissue ratio at 1 h (in vivo; Bone): 2.51; tissue to tissue ratio at 1 h (in vivo; Brain): 14.8; tissue to tissue ratio at 1 h (in vivo; Heart): 1.32; tissue to tissue ratio at 1 h (in vivo; Intestine): 0.96; tissue to tissue ratio at 1 h (in vivo; Kidney): 0.69; tissue to tissue ratio at 1 h (in vivo; Liver): 1.19; tissue to tissue ratio at 1 h (in vivo; Lung): 0.71; tissue to tissue ratio at 1 h (in vivo; Muscle): 3.53; tissue to tissue ratio at 1 h (in vivo; Spleen): 1.61; tissue to tissue ratio at 1 h (in vivo; Stomach): 1.64
